{"source": "paper PMC10746525", "key": {"GCN4-TRAK1_(342-431) [1]": {"molecular_target": "GCN4-TRAK1_(342-431) (UniProt Q9UPV9)", "test": "ITC; VP-ITC, 25 °C; ITC buffer (20 mM Hepes pH 7.5, 400 mM NaCl, 1 mM MgCl2, 5% w/v sucrose, 0.1 μM GTP) with 5 mM EGTA; the binder of each row in the syringe"}, "GCN4-TRAK1_(342-431) [2]": {"molecular_target": "GCN4-TRAK1_(342-431) (UniProt Q9UPV9)", "test": "ITC; VP-ITC, 25 °C; ITC buffer (20 mM Hepes pH 7.5, 400 mM NaCl, 1 mM MgCl2, 5% w/v sucrose, 0.1 μM GTP) with 50 μM CaCl2; MIRO1_(177-591) in the syringe, TRAK1 construct in the cell"}}, "data": [{"substance": "MIRO1_(177-591) (from UniProt Q8IXI2 177-591) (domain or fragment)", "values": [{"measurement": "Kd", "setting": "GCN4-TRAK1_(342-431) [1]", "value": 5.13, "unit": "µM"}, {"measurement": "stoichiometry N", "setting": "GCN4-TRAK1_(342-431) [1]", "value": 1.84}, {"measurement": "Kd", "setting": "GCN4-TRAK1_(342-431) [2]", "value": 7.04, "unit": "µM"}, {"measurement": "stoichiometry N", "setting": "GCN4-TRAK1_(342-431) [2]", "value": 1.93}]}]}
